According to the supplement of paper PMC9112550, “Optimization of the antimicrobial peptide Bac7 by deep mutational scanning” (BMC Biology, 2022):

Test system: Escherichia coli TOP10
Experiment: shrunken log2 fold change of peptide-encoding DNA abundance (4.5 h post-induction vs induction); higher = less antimicrobial activity (less host growth inhibition)
Settings: time post-induction: 4.5 h; library: site-saturation at positions 5, 18, 19, 20
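Further: peptides expressed intracellularly from a pBAD plasmid library in pooled LB shake-flask culture, induced with 0.3% L-arabinose, DNA abundance read by NGS, three biological replicates, DESeq2 with apeglm shrinkage.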

| Sequence | shrunken log2 fold change |
| --- | --- |
| RRIRGRPPRLPRPRPRPRHPPRP | 0.442 |
| RRIRGRPPRLPRPRPRPRIVPRP | 0.824 |
| RRIRGRPPRLPRPRPRPRKMPRP | 0.949 |
| RRIRGRPPRLPRPRPRPRLKPRP | 0.777 |
| RRIRGRPPRLPRPRPRPRMDPRP | 0.59 |
| RRIRGRPPRLPRPRPRPRMEPRP | 0.483 |
| RRIRGRPPRLPRPRPRPRMIPRP | 0.646 |
| RRIRGRPPRLPRPRPRPRPDPRP | 0.94 |
| RRIRGRPPRLPRPRPRPRQEPRP | 0.527 |
| RRIRGRPPRLPRPRPRPRQKPRP | 1.43 |
| RRIRGRPPRLPRPRPRPRRIPRP | 0.451 |
| RRIRGRPPRLPRPRPRPRRQPRP | 0.85 |
| RRIRGRPPRLPRPRPRPRSHPRP | 0.239 |
| RRIRGRPPRLPRPRPRPRSQPRP | 1.13 |
| RRIRGRPPRLPRPRPRPRSVPRP | 0.662 |
| RRIRGRPPRLPRPRPRPRSYPRP | 0.288 |
| RRIRGRPPRLPRPRPRPRTIPRP | 0.375 |
| RRIRGRPPRLPRPRPRPRTPPRP | 1.18 |
| RRIRGRPPRLPRPRPRPRVCPRP | 1.1 |
| RRIRGRPPRLPRPRPRPRVIPRP | 0.227 |
| RRIRGRPPRLPRPRPRPRVQPRP | 0.218 |
| RRIRGRPPRLPRPRPRPRWQPRP | 0.994 |
| RRIRGRPPRLPRPRPRPSAVPRP | 1.39 |
| RRIRGRPPRLPRPRPRPSCEPRP | 0.507 |
| RRIRGRPPRLPRPRPRPSCIPRP | 0.423 |

| Sequence | shrunken log2 fold change |
| --- | --- |
| RRIRGRPPRLPRPRPRPSDAPRP | 0.264 |
| RRIRGRPPRLPRPRPRPSEYPRP | -0.0981 |
| RRIRGRPPRLPRPRPRPSFDPRP | 0.44 |
| RRIRGRPPRLPRPRPRPSGVPRP | 0.633 |
| RRIRGRPPRLPRPRPRPSHKPRP | -0.157 |
| RRIRGRPPRLPRPRPRPSILPRP | 1.03 |
| RRIRGRPPRLPRPRPRPSINPRP | -0.0752 |
| RRIRGRPPRLPRPRPRPSIYPRP | 0.302 |
| RRIRGRPPRLPRPRPRPSKCPRP | -0.313 |
| RRIRGRPPRLPRPRPRPSLFPRP | 0.442 |
| RRIRGRPPRLPRPRPRPSLHPRP | 0.316 |
| RRIRGRPPRLPRPRPRPSLSPRP | 0.576 |
| RRIRGRPPRLPRPRPRPSNHPRP | -0.145 |
| RRIRGRPPRLPRPRPRPSPCPRP | -0.0911 |
| RRIRGRPPRLPRPRPRPSPGPRP | 0.732 |
| RRIRGRPPRLPRPRPRPSPYPRP | -0.148 |
| RRIRGRPPRLPRPRPRPSQHPRP | 0.0187 |
| RRIRGRPPRLPRPRPRPSRAPRP | 0.553 |
| RRIRGRPPRLPRPRPRPSREPRP | 0.51 |
| RRIRGRPPRLPRPRPRPSRHPRP | 0.0789 |
| RRIRGRPPRLPRPRPRPSVHPRP | -0.00458 |
| RRIRGRPPRLPRPRPRPSYEPRP | 0.0732 |
| RRIRGRPPRLPRPRPRPTAFPRP | 1.19 |
| RRIRGRPPRLPRPRPRPTAYPRP | 0.656 |
| RRIRGRPPRLPRPRPRPTDIPRP | 0.114 |

| Sequence | shrunken log2 fold change |
| --- | --- |
| RRIRGRPPRLPRPRPRPTDRPRP | 0.0231 |
| RRIRGRPPRLPRPRPRPTDVPRP | 0.307 |
| RRIRGRPPRLPRPRPRPTECPRP | 0.267 |
| RRIRGRPPRLPRPRPRPTEEPRP | 0.525 |
| RRIRGRPPRLPRPRPRPTEPPRP | 0.716 |
| RRIRGRPPRLPRPRPRPTEWPRP | 1.23 |
| RRIRGRPPRLPRPRPRPTFHPRP | 0.366 |
| RRIRGRPPRLPRPRPRPTFTPRP | 0.638 |
| RRIRGRPPRLPRPRPRPTFVPRP | 0.782 |
| RRIRGRPPRLPRPRPRPTGAPRP | 1.31 |
| RRIRGRPPRLPRPRPRPTGFPRP | 1.23 |
| RRIRGRPPRLPRPRPRPTGMPRP | 0.851 |
| RRIRGRPPRLPRPRPRPTGTPRP | 0.517 |
| RRIRGRPPRLPRPRPRPTHPPRP | 0.868 |
| RRIRGRPPRLPRPRPRPTHTPRP | 0.862 |
| RRIRGRPPRLPRPRPRPTHWPRP | 0.629 |
| RRIRGRPPRLPRPRPRPTIDPRP | 0.214 |
| RRIRGRPPRLPRPRPRPTIMPRP | 0.365 |
| RRIRGRPPRLPRPRPRPTIQPRP | 0.54 |
| RRIRGRPPRLPRPRPRPTKQPRP | 0.169 |
| RRIRGRPPRLPRPRPRPTKYPRP | 0.189 |
| RRIRGRPPRLPRPRPRPTLDPRP | 0.93 |
| RRIRGRPPRLPRPRPRPTLGPRP | 0.936 |
| RRIRGRPPRLPRPRPRPTLQPRP | 0.779 |
| RRIRGRPPRLPRPRPRPTMIPRP | 0.0786 |
